Ends that are not written are not given here.
T1: MBP-fused CAND1 (human, UniProt Q86VP6 1-1230)
T1 construct: Cullin-associated and neddylation-dissociated 1 (CAND1), human; cDNA bought from the Kazusa DNA Research Institute, in pMAL-C2; also called MBP-CAND1; source: E. coli Rosetta-Gami, purified (amylose resin, eluted with maltose)
T1 sequence (looked up): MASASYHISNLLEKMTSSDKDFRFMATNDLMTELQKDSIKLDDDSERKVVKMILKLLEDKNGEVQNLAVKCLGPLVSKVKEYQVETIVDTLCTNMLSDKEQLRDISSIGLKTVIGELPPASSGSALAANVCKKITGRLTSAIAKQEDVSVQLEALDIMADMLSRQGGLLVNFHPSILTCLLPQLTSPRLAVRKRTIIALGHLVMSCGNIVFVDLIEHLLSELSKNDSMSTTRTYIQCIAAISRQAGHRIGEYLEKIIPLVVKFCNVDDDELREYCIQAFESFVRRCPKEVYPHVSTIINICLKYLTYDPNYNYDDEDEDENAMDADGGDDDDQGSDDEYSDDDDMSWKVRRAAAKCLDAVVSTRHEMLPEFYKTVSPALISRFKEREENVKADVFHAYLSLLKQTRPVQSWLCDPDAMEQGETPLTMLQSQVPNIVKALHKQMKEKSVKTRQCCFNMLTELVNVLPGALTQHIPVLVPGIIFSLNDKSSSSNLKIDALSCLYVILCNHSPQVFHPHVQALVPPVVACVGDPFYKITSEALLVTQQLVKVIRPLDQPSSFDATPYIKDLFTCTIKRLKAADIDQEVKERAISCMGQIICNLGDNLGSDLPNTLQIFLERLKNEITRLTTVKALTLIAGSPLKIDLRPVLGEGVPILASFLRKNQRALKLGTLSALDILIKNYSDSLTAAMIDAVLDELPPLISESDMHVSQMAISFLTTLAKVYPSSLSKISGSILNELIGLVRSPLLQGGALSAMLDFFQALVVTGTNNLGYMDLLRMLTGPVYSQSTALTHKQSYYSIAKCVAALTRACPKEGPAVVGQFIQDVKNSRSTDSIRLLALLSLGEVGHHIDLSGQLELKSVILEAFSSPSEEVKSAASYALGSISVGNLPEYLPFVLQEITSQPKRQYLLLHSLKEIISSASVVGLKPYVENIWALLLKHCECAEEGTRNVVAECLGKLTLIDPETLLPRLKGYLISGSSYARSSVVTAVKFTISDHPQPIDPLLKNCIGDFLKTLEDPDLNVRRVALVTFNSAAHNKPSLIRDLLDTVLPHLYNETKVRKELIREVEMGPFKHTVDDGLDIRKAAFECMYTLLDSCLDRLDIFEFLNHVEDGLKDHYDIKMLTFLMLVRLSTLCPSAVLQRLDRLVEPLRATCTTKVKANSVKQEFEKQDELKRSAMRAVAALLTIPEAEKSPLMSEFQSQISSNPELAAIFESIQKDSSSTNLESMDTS

B1: His-Lnp ΔUb (Lnp lacking the N-terminal ubiquitin ligase domain) (domain or fragment, human, UniProt Q9C0E8 46-428, looked up)
chain: LILYSSVLYLFTCLIVYLWYLPDEFTARLAMTLPFFAFPLIIWSIRTVIIFFFSKRTERNNEALDDLKSQRKKILEEVMEKETYKTAKLILERFDPDSKKAKECEPPSAGAAVTARPGQEIRQRTAAQRNLSPTPASPNQGPPPQVPVSPGPPKDSSAPGGPPERTVTPALSSNVLPRHLGSPATSVPGMGLHPPGPPLARPILPRERGALDRIVEYLVGDGPQNRYALICQQCFSHNGMALKEEFEYIAFRCAYCFFLNPARKTRPQAPRLPEFSFEKRQVVEGSSSVGPLPSGSVLSSDNQFNEESLEHDVLDDNTEQTDDKIPATEQTNQVIEKASDSEEPEEKQETENEEASVIETNSTVPGADSIPDPELSGESLTAE
notes: lunapark (Lnp), human, lacking Lnp Ub (the N-terminal cytoplasmic domain, 1–45 aa), in pET28a(+); The start 46 follows from the printed limits of Lnp Ub (1–45 aa); source: E. coli BL21 (DE3), purified (Ni-agarose)

Tests used:
[1] = target: the molecule itself; assay: sucrose density gradient ultracentrifugation; His-Lnp (0.6 nmol) alone or incubated with MBP-CAND1 (2 nmol) in buffer H (20 mM Tris-HCl pH 7.5, 150 mM NaCl, 1% Triton X-100), 10–40% (w/v) sucrose gradient, 200,000 x g, 4 °C, 20 h; 17 fractions, CBB staining
MBP-fused CAND1 [2] = target: T1, MBP-fused CAND1; assay: as above; settings: both partners purified
MBP-fused CAND1 [3] = target: T1, MBP-fused CAND1; assay: pull-down; GST-Lnp or GST-Lnp Ub (0.6 nmol) immobilised on glutathione Sepharose, incubated with MBP-CAND1 (6 nmol) in buffer A with 1% Triton X-100, 4 °C 2 h; CBB staining; settings: both partners purified
MBP-fused CAND1 [4] = target: T1, MBP-fused CAND1; assay: pull-down; His-Lnp WT or deletion mutants (0.5 nmol) immobilised on Ni-agarose, incubated with MBP-CAND1 or MBP alone (3 nmol) in buffer G with 10 mM imidazole, 4 °C 2 h; CBB staining; settings: both partners purified
[5] = target: B1; assay: pull-down; His-Lnp ΔUb (0.6 nmol) immobilised on Ni-agarose, incubated with GST-Lnp Ub (3 nmol) or GST alone, or with GST-Lnp Ub (1.2 nmol) and MBP-CAND1 or MBP alone (6 nmol), in buffer G with 20 mM imidazole and 1 mM DTT, 4 °C 2 h; CBB staining; settings: both partners purified

binding result (MBP-fused CAND1 [4]) | Binder | also measured
 | hexa histidine-tagged Lnp, wild type (natural protein, human, UniProt Q9C0E8 1-428, looked up, lunapark (Lnp), human; cDNA amplified from a human cDNA library, in pET28a(+); also called His-Lnp; His-Lnp WT; source: E. coli BL21 (DE3), purified (Ni-agarose)) MGGLFSRWRTKPSTVEVLESIDKEIQALEEFREKNQRLQKLWVGRLILYSSVLYLFTCLIVYLWYLPDEFTARLAMTLPFFAFPLIIWSIRTVIIFFFSKRTERNNEALDDLKSQRKKILEEVMEKETYKTAKLILERFDPDSKKAKECEPPSAGAAVTARPGQEIRQRTAAQRNLSPTPASPNQGPPPQVPVSPGPPKDSSAPGGPPERTVTPALSSNVLPRHLGSPATSVPGMGLHPPGPPLARPILPRERGALDRIVEYLVGDGPQNRYALICQQCFSHNGMALKEEFEYIAFRCAYCFFLNPARKTRPQAPRLPEFSFEKRQVVEGSSSVGPLPSGSVLSSDNQFNEESLEHDVLDDNTEQTDDKIPATEQTNQVIEKASDSEEPEEKQETENEEASVIETNSTVPGADSIPDPELSGESLTAE | binding result [1]: binds; binding result (MBP-fused CAND1 [2]): binds
 | GST-fused Lnp (lunapark) (natural protein, human, UniProt Q9C0E8 1-428, looked up, lunapark (Lnp), human; cDNA amplified from a human cDNA library, in pGEX-6P-1; the same cDNA was subcloned into all vectors; also called GST-Lnp; GST-Lnp WT; source: E. coli BL21 (DE3), purified (glutathione Sepharose)) MGGLFSRWRTKPSTVEVLESIDKEIQALEEFREKNQRLQKLWVGRLILYSSVLYLFTCLIVYLWYLPDEFTARLAMTLPFFAFPLIIWSIRTVIIFFFSKRTERNNEALDDLKSQRKKILEEVMEKETYKTAKLILERFDPDSKKAKECEPPSAGAAVTARPGQEIRQRTAAQRNLSPTPASPNQGPPPQVPVSPGPPKDSSAPGGPPERTVTPALSSNVLPRHLGSPATSVPGMGLHPPGPPLARPILPRERGALDRIVEYLVGDGPQNRYALICQQCFSHNGMALKEEFEYIAFRCAYCFFLNPARKTRPQAPRLPEFSFEKRQVVEGSSSVGPLPSGSVLSSDNQFNEESLEHDVLDDNTEQTDDKIPATEQTNQVIEKASDSEEPEEKQETENEEASVIETNSTVPGADSIPDPELSGESLTAE | binding result (MBP-fused CAND1 [3]): binds
binds | B1 | 
 | {GST}-MGGLFSRWRTKPSTVEVLESIDKEIQALEEFREKNQRLQKLWVGR (domain or fragment, human, UniProt Q9C0E8 1-45, looked up, lunapark (Lnp), human, N-terminal cytoplasmic domain (1–45 aa, Ub), in pGEX-6P-1; source: E. coli BL21 (DE3), purified (glutathione Sepharose, eluted with glutathione)) [GST-Lnp Ub (N-terminal ubiquitin ligase domain of Lnp)] | binding result [5]: binds
binds | His-Lnp ΔZn + LNPARK (Lnp lacking the zinc finger motif and the following LNPARK amino acids) (natural protein, human, UniProt Q9C0E8 1-428, looked up, lunapark (Lnp), human, lacking the zinc finger motif and the following LNPARK amino acids (275–309 aa), in pET28a(+); source: E. coli BL21 (DE3), purified (Ni-agarose)) MGGLFSRWRTKPSTVEVLESIDKEIQALEEFREKNQRLQKLWVGRLILYSSVLYLFTCLIVYLWYLPDEFTARLAMTLPFFAFPLIIWSIRTVIIFFFSKRTERNNEALDDLKSQRKKILEEVMEKETYKTAKLILERFDPDSKKAKECEPPSAGAAVTARPGQEIRQRTAAQRNLSPTPASPNQGPPPQVPVSPGPPKDSSAPGGPPERTVTPALSSNVLPRHLGSPATSVPGMGLHPPGPPLARPILPRERGALDRIVEYLVGDGPQNRYALTRPQAPRLPEFSFEKRQVVEGSSSVGPLPSGSVLSSDNQFNEESLEHDVLDDNTEQTDDKIPATEQTNQVIEKASDSEEPEEKQETENEEASVIETNSTVPGADSIPDPELSGESLTAE | 
binds | His-Lnp ΔCC (Lnp lacking the coiled-coil domain) (natural protein, human, UniProt Q9C0E8 1-428, looked up, lunapark (Lnp), human, lacking the coiled-coil domain (100–143 aa), in pET28a(+); source: E. coli BL21 (DE3), purified (Ni-agarose)) MGGLFSRWRTKPSTVEVLESIDKEIQALEEFREKNQRLQKLWVGRLILYSSVLYLFTCLIVYLWYLPDEFTARLAMTLPFFAFPLIIWSIRTVIIFFFSKKAKECEPPSAGAAVTARPGQEIRQRTAAQRNLSPTPASPNQGPPPQVPVSPGPPKDSSAPGGPPERTVTPALSSNVLPRHLGSPATSVPGMGLHPPGPPLARPILPRERGALDRIVEYLVGDGPQNRYALICQQCFSHNGMALKEEFEYIAFRCAYCFFLNPARKTRPQAPRLPEFSFEKRQVVEGSSSVGPLPSGSVLSSDNQFNEESLEHDVLDDNTEQTDDKIPATEQTNQVIEKASDSEEPEEKQETENEEASVIETNSTVPGADSIPDPELSGESLTAE | 
binds | His-Lnp ΔTM (transmembrane domains replaced by a (GGS)3 linker) (natural protein, human, lunapark (Lnp), human, the stretch before the transmembrane domains (45–100 aa); polypeptide linker (GGS)3 in place of residues 45–100; lunapark (Lnp), human, the stretch after the transmembrane domains (45–100 aa); source: E. coli BL21 (DE3), purified (Ni-agarose)) MGGLFSRWRTKPSTVEVLESIDKEIQALEEFREKNQRLQKLWVGGGSGGSGGSRTERNNEALDDLKSQRKKILEEVMEKETYKTAKLILERFDPDSKKAKECEPPSAGAAVTARPGQEIRQRTAAQRNLSPTPASPNQGPPPQVPVSPGPPKDSSAPGGPPERTVTPALSSNVLPRHLGSPATSVPGMGLHPPGPPLARPILPRERGALDRIVEYLVGDGPQNRYALICQQCFSHNGMALKEEFEYIAFRCAYCFFLNPARKTRPQAPRLPEFSFEKRQVVEGSSSVGPLPSGSVLSSDNQFNEESLEHDVLDDNTEQTDDKIPATEQTNQVIEKASDSEEPEEKQETENEEASVIETNSTVPGADSIPDPELSGESLTAE | 
